How the values were obtained:
Experiment in all cases: EMSA; competed by 10x and 100x cold probe; EMSA according to a previous study (ref 35); buffer, salt, pH and temperature not given
Settings in all cases: protein: recombinant; tags: TF (trigger factor) fusion from pCold-TF; chain copies: 2; label: biotin
PbHB.G7.2 = target: T1, PbHB.G7.2 (pear (Pyrus; species  in the …, UniProt A0A5N5HLN1 1-287)
T1 sequence: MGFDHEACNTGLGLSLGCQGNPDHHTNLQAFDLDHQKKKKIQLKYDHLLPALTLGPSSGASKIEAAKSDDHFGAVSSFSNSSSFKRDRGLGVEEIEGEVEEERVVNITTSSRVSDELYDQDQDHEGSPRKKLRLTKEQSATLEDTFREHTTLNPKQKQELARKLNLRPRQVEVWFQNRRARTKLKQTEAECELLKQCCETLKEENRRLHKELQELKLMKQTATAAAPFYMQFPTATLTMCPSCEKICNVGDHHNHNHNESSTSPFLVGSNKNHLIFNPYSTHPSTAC

PbHB.G1 = target: T2, PbHB.G1 (pear (Pyrus; species  in the …, UniProt UPI0020301D10 1-344)
T2 sequence: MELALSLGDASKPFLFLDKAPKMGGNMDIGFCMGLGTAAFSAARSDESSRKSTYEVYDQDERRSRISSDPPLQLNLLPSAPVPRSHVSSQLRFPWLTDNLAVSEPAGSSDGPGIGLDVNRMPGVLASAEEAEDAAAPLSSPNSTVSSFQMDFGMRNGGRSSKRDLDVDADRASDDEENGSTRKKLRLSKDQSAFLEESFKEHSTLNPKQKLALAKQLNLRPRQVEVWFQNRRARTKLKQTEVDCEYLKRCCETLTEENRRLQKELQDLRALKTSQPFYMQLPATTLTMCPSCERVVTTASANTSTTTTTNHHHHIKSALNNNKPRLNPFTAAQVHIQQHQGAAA

PbHB.G2.1 = target: T3, PbHB.G2.1 (pear (Pyrus; species  in the …, UniProt A0A5N5HPW9 1-368)
T3 sequence: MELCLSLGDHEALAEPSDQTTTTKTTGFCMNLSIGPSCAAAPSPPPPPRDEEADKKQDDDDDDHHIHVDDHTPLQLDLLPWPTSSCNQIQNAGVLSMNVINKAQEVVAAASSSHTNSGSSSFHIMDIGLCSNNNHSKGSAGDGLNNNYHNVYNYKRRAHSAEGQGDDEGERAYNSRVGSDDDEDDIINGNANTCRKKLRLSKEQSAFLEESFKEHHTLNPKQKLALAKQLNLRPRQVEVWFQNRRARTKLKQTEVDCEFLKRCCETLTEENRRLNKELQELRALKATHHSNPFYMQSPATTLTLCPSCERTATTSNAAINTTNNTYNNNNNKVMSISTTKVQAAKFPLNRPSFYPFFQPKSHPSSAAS

B1: PbACS1b promoter P9 probe (34 bp) (dsDNA)
DNA 1: CTTATGGGTCGGTTTTTCTACATTTGAATTTTGA
DNA 2: TCAAAATTCAAATGTAGAAAAACCGACCCATAAG
Question: Does B1 bind (PbHB.G7.2)?
Answer: Result: binds

B2: PbACS1b promoter P16 probe 1 (33 bp) (dsDNA)
DNA 1: TTATATGTTGTATCTTATTTCATCGTTGATTAC
DNA 2: GTAATCAACGATGAAATAAGATACAACATATAA
Question: Does B2 bind (PbHB.G1)?
Answer: Result: binds

B3: PbACS1b promoter P17 probe 2 (40 bp) (dsDNA)
DNA 1: CCTCAAGGAAATAGTAATACCCTTTAGATTTGAAGTCCTA
DNA 2: TAGGACTTCAAATCTAAAGGGTATTACTATTTCCTTGAGG
Question: Does B3 bind (PbHB.G2.1)?
Answer: Result: binds
